Source: the RNAGym collection of RNA variant scans (doi:10.7554/elife.90254)

B1: LINE1-mini (parent)
chain: GGCAGAGCUCAACACAGCGUGGCAAAGUGGCUGUGGCUAGACUGCC

Variants of: B1
Assay: self-cleavage, relative activity (ratio to wild type); higher = more cleavage; in vitro, sequencing; the parent is a self-cleaving ribozyme

Variant	self-cleavage
UGCAGAGCUCAACACAGCGUGGCAAAGUGGCGGUGGCUAGACUGCC [G1U U32G]	0.05
UGCAGAGCUCAACACAGCGUGGCAAAGUGGCAGUGGCUAGACUGCC [G1U U32A]	0.06
UGCAGAGCUCAACACAGCGUGGCAAAGUGGCCGUGGCUAGACUGCC [G1U U32C]	0.08
GACAGACCUCAACACAGCGUGGCAAAGUGGCUGUGGCUAGACUGCC [G2A G7C]	0.39
GACAGAUCUCAACACAGCGUGGCAAAGUGGCUGUGGCUAGACUGCC [G2A G7U]	0.17
GACAGAACUCAACACAGCGUGGCAAAGUGGCUGUGGCUAGACUGCC [G2A G7A]	0.86
GACAGAGCUCAACACAGCGUAGCAAAGUGGCUGUGGCUAGACUGCC [G2A G21A]	2.98
GACAGAGCUCAACACAGCGUCGCAAAGUGGCUGUGGCUAGACUGCC [G2A G21C]	0.46
GACAGAGCUCAACACAGCGUUGCAAAGUGGCUGUGGCUAGACUGCC [G2A G21U]	0.89
GACAGAGCUCAACACAGCGUGGCAAAGUGGGUGUGGCUAGACUGCC [G2A C31G]	0.14
GACAGAGCUCAACACAGCGUGGCAAAGUGGUUGUGGCUAGACUGCC [G2A C31U]	0.25
GACAGAGCUCAACACAGCGUGGCAAAGUGGAUGUGGCUAGACUGCC [G2A C31A]	0.23
GACAGAGCUCAACACAGCGUGGCAAAGUGGCUGUGGCUAGUCUGCC [G2A A41U]	0.66
GACAGAGCUCAACACAGCGUGGCAAAGUGGCUGUGGCUAGCCUGCC [G2A A41C]	0.08
GACAGAGCUCAACACAGCGUGGCAAAGUGGCUGUGGCUAGGCUGCC [G2A A41G]	0.4
GACAGAGCUCAACACAGCGUGGCAAAGUGGCUGUGGCUAGAGUGCC [G2A C42G]	0.34
GACAGAGCUCAACACAGCGUGGCAAAGUGGCUGUGGCUAGAUUGCC [G2A C42U]	0.44
GACAGAGCUCAACACAGCGUGGCAAAGUGGCUGUGGCUAGAAUGCC [G2A C42A]	0.36
UGCAGAGCUCAACACAGCGUGGCAAAGUGGCUGUGGCUAGACCGCC [G1U U43C]	0.06

Variant	self-cleavage
UGCAGAGCUCAACACAGCGUGGCAAAGUGGCUGUGGCUAGACAGCC [G1U U43A]	0.05
UGCAGAGCUCAACACAGCGUGGCAAAGUGGCUGUGGCUAGACGGCC [G1U U43G]	0.07
GACAGAGCUCAACACAGUGUGGCAAAGUGGCUGUGGCUAGACUGCC [G2A C18U]	0.46
GACAGAGCUCAACACAGAGUGGCAAAGUGGCUGUGGCUAGACUGCC [G2A C18A]	0.16
GACAGAGCUCAACACAGGGUGGCAAAGUGGCUGUGGCUAGACUGCC [G2A C18G]	0.46
GACAAAGCUCAACACAGCGUGGCAAAGUGGCUGUGGCUAGACUGCC [G2A G5A]	0.53
GACAUAGCUCAACACAGCGUGGCAAAGUGGCUGUGGCUAGACUGCC [G2A G5U]	0.27
GACACAGCUCAACACAGCGUGGCAAAGUGGCUGUGGCUAGACUGCC [G2A G5C]	0.06
GACAGCGCUCAACACAGCGUGGCAAAGUGGCUGUGGCUAGACUGCC [G2A A6C]	0.33
GACAGGGCUCAACACAGCGUGGCAAAGUGGCUGUGGCUAGACUGCC [G2A A6G]	0.13
GACAGUGCUCAACACAGCGUGGCAAAGUGGCUGUGGCUAGACUGCC [G2A A6U]	1
GACAGAGCUCAACACAGCGUGGCAAAGUGACUGUGGCUAGACUGCC [G2A G30A]	1.67
GACAGAGCUCAACACAGCGUGGCAAAGUGUCUGUGGCUAGACUGCC [G2A G30U]	1.4
GACAGAGCUCAACACAGCGUGGCAAAGUGCCUGUGGCUAGACUGCC [G2A G30C]	0.51
GACAGAGCUCAACACAGCGUGGCAAAGUGGCUGUGGCUAGACUGCU [G2A C46U]	0.87
GACAGAGCUCAACACAGCGUGGCAAAGUGGCUGUGGCUAGACUGCA [G2A C46A]	1.23
GACAGAGCUCAACACAGCGUGGCAAAGUGGCUGUGGCUAGACUGCG [G2A C46G]	0.96
GACAGAGCUCAACACAGCGUGGCAAAGUGGCUGUGGCUGGACUGCC [G2A A39G]	0.22
GACAGAGCUCAACACAGCGUGGCAAAGUGGCUGUGGCUCGACUGCC [G2A A39C]	0.54

Variant	self-cleavage
GACAGAGCUCAACACAGCGUGGCAAAGUGGCUGUGGCUUGACUGCC [G2A A39U]	0.76
GACAGAGCUCAACACAGCGUGACAAAGUGGCUGUGGCUAGACUGCC [G2A G22A]	0.8
GACAGAGCUCAACACAGCGUGUCAAAGUGGCUGUGGCUAGACUGCC [G2A G22U]	0.89
GACAGAGCUCAACACAGCGUGCCAAAGUGGCUGUGGCUAGACUGCC [G2A G22C]	0.29
UGCAGAGCUCAACACAGCGUGGCAAAGUGGCUGUGGCAAGACUGCC [G1U U38A]	0.13
UGCAGAGCUCAACACAGCGUGGCAAAGUGGCUGUGGCGAGACUGCC [G1U U38G]	0.03
UGCAGAGCUCAACACAGCGUGGCAAAGUGGCUGUGGCCAGACUGCC [G1U U38C]	0.2
GACAGAGCUCAACACAGCGUGGCAAAGUGGCUGUGGCUAGACUGCC [G2A]	0.92
GACAGAGCUCAACGCAGCGUGGCAAAGUGGCUGUGGCUAGACUGCC [G2A A14G]	0.81
GACAGAGCUCAACCCAGCGUGGCAAAGUGGCUGUGGCUAGACUGCC [G2A A14C]	0.15
GACAGAGCUCAACUCAGCGUGGCAAAGUGGCUGUGGCUAGACUGCC [G2A A14U]	0.37
GACAGAGCUCAACACAGCGUGGCAACGUGGCUGUGGCUAGACUGCC [G2A A26C]	0.9
GACAGAGCUCAACACAGCGUGGCAAGGUGGCUGUGGCUAGACUGCC [G2A A26G]	0.6
GACAGAGCUCAACACAGCGUGGCAAUGUGGCUGUGGCUAGACUGCC [G2A A26U]	1.83
UGCAGAGCUCAACACAGCGGGGCAAAGUGGCUGUGGCUAGACUGCC [G1U U20G]	0.16
GACAGAGCUCUACACAGCGUGGCAAAGUGGCUGUGGCUAGACUGCC [G2A A11U]	0.12
GACAGAGCUCGACACAGCGUGGCAAAGUGGCUGUGGCUAGACUGCC [G2A A11G]	0.08
GACAGAGCUCCACACAGCGUGGCAAAGUGGCUGUGGCUAGACUGCC [G2A A11C]	0.05
